In patent publication JP2006523083A (dated 2006):
One block for each molecule: values may come before it.

How the values were obtained:
[1] = target: ビオチン化EpoR(Abbott CHO細胞由来 ref.#RB69084:4) (UniProt P19235); assay: immunofluorescence microscopy on EpoR-coated sheep red cells, MAB307 plus Alexa488 anti-mouse IgG Fc
[2] = target: T1, 可溶性EPO受容体(sEPOR)(R&D Systems Cat.#307-ER/LF) (human, UniProt P19235 25-250); assay: BIAcore (antibody immobilised, soluble human EPO receptor injected), as paragraph 65 attributes it; values not given
T1 construct: extracellular domain; The ELISA paragraph names only 'soluble EPO receptor' with the catalogue number; also called sEPOR; 固相化エリスロポエチン受容体
T1 sequence (looked up): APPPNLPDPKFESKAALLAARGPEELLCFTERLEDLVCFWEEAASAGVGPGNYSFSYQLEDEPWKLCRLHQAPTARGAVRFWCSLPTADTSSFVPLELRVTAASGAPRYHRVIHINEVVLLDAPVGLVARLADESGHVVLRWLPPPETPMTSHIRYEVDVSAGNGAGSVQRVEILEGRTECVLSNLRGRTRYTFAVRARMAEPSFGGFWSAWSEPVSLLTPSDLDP

[3] = target: T2, 全長組換えヒトEPO受容体(CHO細胞に発現) (human, UniProt P19235 25-508); assay: competition with 125I-EPO on CHO cells expressing full-length human EPO receptor
T2 construct: whole, on cells; also called 組換えEPO受容体を発現するCHO細胞; エリスロポエチン受容体
T2 sequence (looked up): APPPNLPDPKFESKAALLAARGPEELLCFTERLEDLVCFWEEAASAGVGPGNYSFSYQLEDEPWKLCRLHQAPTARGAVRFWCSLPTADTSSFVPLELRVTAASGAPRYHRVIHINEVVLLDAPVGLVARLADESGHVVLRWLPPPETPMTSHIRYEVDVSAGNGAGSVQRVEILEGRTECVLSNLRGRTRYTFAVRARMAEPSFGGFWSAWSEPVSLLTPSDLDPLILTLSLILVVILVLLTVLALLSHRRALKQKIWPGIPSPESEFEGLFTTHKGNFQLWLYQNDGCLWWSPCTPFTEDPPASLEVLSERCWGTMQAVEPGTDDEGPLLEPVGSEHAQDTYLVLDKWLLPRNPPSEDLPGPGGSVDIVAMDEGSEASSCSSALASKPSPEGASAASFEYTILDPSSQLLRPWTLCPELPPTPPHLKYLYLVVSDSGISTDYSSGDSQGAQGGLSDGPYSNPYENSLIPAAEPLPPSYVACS

[4] = target: T3, ペプチドSE−3 (human); assay: ELISA on plate-coated SE-3 peptide (5 μg/ml), anti-human IgG (Fc)-HRP
T3 construct: also called SE-3; SE-3ペプチド
T3 peptide: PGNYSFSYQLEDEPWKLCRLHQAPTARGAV

[5] = target: ヒトエリスロポエチン受容体(UT-7/Epo細胞・F36E細胞上) (human), P19235; assay: cell-based or functional assay

immunofluorescence score (0-4 scale) [1]: 4 of 4
Molecule: マウス抗EpoR抗体(R&D Systems Cat.# MAB307) (antibody)

binding result [2]: binds
binding result [3]: binds
B1: Ab198 (antibody, V domains shown)
VH: QVQLVESGGGVVQPGRSLRLSCVASGFTFSSYGMHWVRQAPGKGLEWVAVISYDGSNKYYADSVKGRFTISRDNSKNTLYLQMNSLRVEDTAVYYCARDHGGRYVYDYGMDVWGQGTTVTVSS
VL: DIQMTQSPSSVSASIGDRVSITCRASQGISSWLAWYQQKPGKAPTLLIYAASTLQRGVPSRFSGSGSGTDFTLTISSLQPEDFATYFCQQANSFPFTFGPGTKVDIK
notes: These were not used; also called AB-ABT2-XG2-198; ABT2-XG2-198

binding result [4]: no binding (tested: 5 μg/ml Ab12)
binding result [2]: binds
binding result [3]: binds
F36E細胞の増殖:EPO対照との最大応答の差(モル当量基準) [5]: 10 倍
B2: Ab12 (antibody, V domains shown)
VH: QVQLQESGPGLVKPSETLSLTCTVSGASISSYYWSWIRQPPGKGLEWIGYIYYSGSTNYNPSLKSRVTISVDTSKNQFSLKLRSVTAADTAVYYCARERLGIGDYWGQGTLVTVSS
VL: DIQLTQSPSSLSASVGDRVTITCRASQGIRNDLGWYQQKPGKAPKRLIYAASSLQSGVPSRFSGSGSGTEFTLTISSLQPEDFATYYCLQHNTYPPTFGQGTKVEIK
notes: Human antibody (XenoMouse XG2); also called AB-ABT2-XG2-012; ABT2-XG2-012
